Data on twelve molecules can be found in US20210338751A1 (LUMEN BIOSCIENCE, published 2021).

The target of assay [1] is T1, Clostridium difficile toxin B (TcdB) (Clostridium difficile, UniProt P18177 2-2366).
T1 construct: also called TcdB toxin
Put plainly: method not stated.

The target of assay [2] is T1, Clostridium difficile toxin B (TcdB). The assay can be described thus: cell-based or functional assay.
Assay [3] shares this target. The assay can be described thus: assay not given; unlabelled list of VHH names and values at the right of the sheet, the same values stand under KD in Table 6 of the text, which prints the unit of 5D as mM.
Assay [4] has as its target T2, recombinant HuNoV GII.2 P domain (Human Norovirus (HuNoV) GII.2).
T2 construct: domain: Protrusion (P) domain
Put plainly: BLI, biotin tagged GII.2 P domain at 100 nM as antigen. A general note: In BLI a coated tip is dipped into the sample, and binding shifts an interference pattern.

Assay [5] deals with T3, recombinant HuNoV GII.10 P domain (Human Norovirus (HuNoV) GII.10).
T3 construct: domain: Protrusion (P) domain
Put plainly: ELISA on recombinant HuNoV GII.10 P domain, Spirulina-expressed Ni-NTA purified protein stored at 4 C.

Assay [6] addresses T3, recombinant HuNoV GII.10 P domain. Put plainly: ELISA on recombinant HuNoV GII.10 P domain, Spirulina-expressed Ni-NTA purified protein after freeze-drying. (ELISA stands for enzyme-linked immunosorbent assay.)
Assay [7] deals with T4, recombinant HuNoV GI.1 P domain (Human Norovirus (HuNoV) GI.1).
T4 construct: domain: Protrusion (P) domain
Put plainly: ELISA on recombinant GI.1 P domain.

A further assay addresses T5, GI.1 VLPs (human norovirus genotype GI.1).
T5 construct: virus-like particle
The assay can be described thus: blocking of GI.1 VLP binding to pig gastric mucin (HBGA).

The target in assay [8] is T4, recombinant HuNoV GI.1 P domain. The assay can be described thus: ELISA on recombinant HuNoV GI.1 P domain, Spirulina-expressed Ni-NTA purified protein stored at 4 C.
The target is the same in assay [9]. The assay can be described thus: ELISA on recombinant HuNoV GI.1 P domain, Spirulina-expressed Ni-NTA purified protein after freeze-drying.

B1: anti-TcdB VHH B12 (VHH)
VHH: VQLVESGGGLVQAGDSLTLSCAASESTFNTFSMAWFRQAPGKEREYVAAFSRSGGTTNYADSVKGRATISTDNAKNTVYLHMNSLKPEDTAVYFCAADRPAGRAYFQSRSYNYWGQGTQVTVSS
The Kd is the equilibrium constant for the complex coming apart. In the case of B1, the affinity in assay [1], expressed as Kd, was 0.07 nM.

B2: 5D+E3+7F (other)
VHH 5D: QVQLVESGGGLVQPGGSLRLSCEASGFTLDYYGIGWFRQPPGKEREAVSYISASARTILYADSVKGRFTISRDNAKNAVYLQMNSLKREDTAVYYCARRRFSASSVNRWLADDYDVWGRGTQVAVSSEPKTPKPQ
VHH E3: QVQLVESGGGLVQTGGSLRLSCASSGSIAGFETVTWSRQAPGKSLQWVASMTKTNNEIYSDSVKGRFIISRDNAKNTVYLQMNSLKPEDTGVYFCKGPELRGQGIQVTVSSEPKTPKPQ
VHH 7F: DVQLQASGGGLVQAGGSLRLSCVASARTFSSYAMGWFRQAPGKEREFVAAISWSGASTDYADSVKGRFTISRDNAKKTVYLQMNTLKPEDTAVYYCAAHHITPTGSYYYSEPLPVDMVYDYWGQGTQVTVSSEPKTKTTTSGR
In the case of B2, in [2], the “Adherence Score at TcdB 0.00001 ng/ml, VHH 100 ng/ml total; none: 7” value (from here on “Adherence Score at TcdB 0.00001 ng/ml”) was determined as 7; the “Adherence Score at TcdB 0.0001 ng/ml, VHH 100 ng/ml total; none: 7” value (shortened to “Adherence Score at TcdB 0.0001 ng/ml”) came out at 7; the “Adherence Score at TcdB 0.001 ng/ml, VHH 100 ng/ml total; none: 6” value (shortened to “Adherence Score at TcdB 0.001 ng/ml”) was found to be 7; the “Adherence Score at TcdB 0.01 ng/ml, VHH 100 ng/ml total; none: 5” value (from here on “Adherence Score at TcdB 0.01 ng/ml”) was determined as 7. Further, in assay [2], the “Adherence Score at TcdB 0.1 ng/ml, VHH 100 ng/ml total; none: 2” value (“Adherence Score at TcdB 0.1 ng/ml” below) was determined as 7; the “Adherence Score at TcdB 1 ng/ml, VHH 100 ng/ml total; none: 1” value (from here on “Adherence Score at TcdB 1 ng/ml”) was 7; the “Adherence Score at TcdB 10 ng/ml, VHH 100 ng/ml total; none: 1” value (“Adherence Score at TcdB 10 ng/ml” for short) worked out at 3.

B3: anti-TcdB VHH E3 (VHH)
VHH: QVQLVESGGGLVQTGGSLRLSCASSGSIAGFETVTWSRQAPGKSLQWVASMTKTNNEIYSDSVKGRFIISRDNAKNTVYLQMNSLKPEDTGVYFCKGPELRGQGIQVTVSSEPKTPKPQ
In assay [1], B3 displayed a Kd of 0.03 nM.

B4: 5D+E3+2D (other)
VHH 5D: QVQLVESGGGLVQPGGSLRLSCEASGFTLDYYGIGWFRQPPGKEREAVSYISASARTILYADSVKGRFTISRDNAKNAVYLQMNSLKREDTAVYYCARRRFSASSVNRWLADDYDVWGRGTQVAVSSEPKTPKPQ
VHH E3: QVQLVESGGGLVQTGGSLRLSCASSGSIAGFETVTWSRQAPGKSLQWVASMTKTNNEIYSDSVKGRFIISRDNAKNTVYLQMNSLKPEDTGVYFCKGPELRGQGIQVTVSSEPKTPKPQ
VHH 2D: QVKLQQSGGGLVQAGGSLRLSCAASGTFSRYAMGWFRQAPGKEREFVAAINWTGGSTYYADSVKGRFTISGDNAKNTVYLQMNSLKPGDTAVYYCAAEVHPGDYGLTYMQSQYEYDYWGQGTQVTVSSEPKTPKPTTSGR
Turning to B4, in [2], the “Adherence Score at TcdB 0.00001 ng/ml” value turned out to be 7; the “Adherence Score at TcdB 0.0001 ng/ml” value was found to be 7; the “Adherence Score at TcdB 0.001 ng/ml” value is 7; the “Adherence Score at TcdB 0.01 ng/ml” value was determined as 7. In assay [2], the “Adherence Score at TcdB 0.1 ng/ml” value turned out to be 7; the “Adherence Score at TcdB 1 ng/ml” value was 6.1; the “Adherence Score at TcdB 10 ng/ml” value turned out to be 2.1.

B5: E3+7F+2D (other)
VHH E3: QVQLVESGGGLVQTGGSLRLSCASSGSIAGFETVTWSRQAPGKSLQWVASMTKTNNEIYSDSVKGRFIISRDNAKNTVYLQMNSLKPEDTGVYFCKGPELRGQGIQVTVSSEPKTPKPQ
VHH 7F: DVQLQASGGGLVQAGGSLRLSCVASARTFSSYAMGWFRQAPGKEREFVAAISWSGASTDYADSVKGRFTISRDNAKKTVYLQMNTLKPEDTAVYYCAAHHITPTGSYYYSEPLPVDMVYDYWGQGTQVTVSSEPKTKTTTSGR
VHH 2D: QVKLQQSGGGLVQAGGSLRLSCAASGTFSRYAMGWFRQAPGKEREFVAAINWTGGSTYYADSVKGRFTISGDNAKNTVYLQMNSLKPGDTAVYYCAAEVHPGDYGLTYMQSQYEYDYWGQGTQVTVSSEPKTPKPTTSGR
In the case of B5, in [2], the “Adherence Score at TcdB 0.00001 ng/ml” value came out at 7; the “Adherence Score at TcdB 0.0001 ng/ml” value was found to be 7; the “Adherence Score at TcdB 0.001 ng/ml” value worked out at 7; the “Adherence Score at TcdB 0.01 ng/ml” value came out at 7. Further, in assay [2], the “Adherence Score at TcdB 0.1 ng/ml” value came out at 6; the “Adherence Score at TcdB 1 ng/ml” value came to 4; the “Adherence Score at TcdB 10 ng/ml” value amounted to 1.

B6: 5D+7F+5E (other)
VHH 5D: QVQLVESGGGLVQPGGSLRLSCEASGFTLDYYGIGWFRQPPGKEREAVSYISASARTILYADSVKGRFTISRDNAKNAVYLQMNSLKREDTAVYYCARRRFSASSVNRWLADDYDVWGRGTQVAVSSEPKTPKPQ
VHH 7F: DVQLQASGGGLVQAGGSLRLSCVASARTFSSYAMGWFRQAPGKEREFVAAISWSGASTDYADSVKGRFTISRDNAKKTVYLQMNTLKPEDTAVYYCAAHHITPTGSYYYSEPLPVDMVYDYWGQGTQVTVSSEPKTKTTTSGR
VHH 5E: VQLVESGGGLVQAGGSLRLSCAASGLMFGAMTMGWYRQAPGKEREMVAYITAGGTESYSESVKGRFTISRINANNMVYLQMTNLKVEDTAVYYCNAHNFWRTSRNWGQGTQVTVSSEPKTPKP
In the case of B6, in assay [2], the “Adherence Score at TcdB 0.00001 ng/ml” value was found to be 7; the “Adherence Score at TcdB 0.0001 ng/ml” value was 7; the “Adherence Score at TcdB 0.001 ng/ml” value amounted to 7; the “Adherence Score at TcdB 0.01 ng/ml” value was 7. Further, in assay [2], the “Adherence Score at TcdB 0.1 ng/ml” value amounted to 7; the “Adherence Score at TcdB 1 ng/ml” value turned out to be 4; the “Adherence Score at TcdB 10 ng/ml” value was found to be 1.

B7: anti-TcdB VHH 5D (VHH)
VHH: QVQLVESGGGLVQPGGSLRLSCEASGFTLDYYGIGWFRQPPGKEREAVSYISASARTILYADSVKGRFTISRDNAKNAVYLQMNSLKREDTAVYYCARRRFSASSVNRWLADDYDVWGRGTQVAVSS
As for B7, the Kd in [1] and in assay [3] was 0.65 nM throughout.

B8: Nano26-MBP (VHH, not shown: large carriers)
VHH: QVQLQESGGGLVQPGGSLRLSCTAPRIIFFMYDVGWYRQAPEKQRELVAQINSDVSTKYADSVKGRFTISRDNAKRTVYLQMNDLKPEDAAVYYCNVRRASADYWGQGTQVTVSS
notes: also called SP834
The kon is a measure of how fast the partners come together. Broadly, the EC50 is the concentration at which the effect is half-maximal. Turning to B8, the Kd in [4] is 21.9 nM. In addition, the kon in assay [4] was 172000 M⁻¹ s⁻¹. Besides, the figures for the EC50 in assay [5] and in assay [6] were 2.75 nM and 2.29 nM, respectively.

B9: anti-TcdB VHH C6 (VHH)
VHH: VQLVESGGGLVQAGESLRLSCVVSESIFRINTMGWYRQTPGKQREVVARITLRNSTTYADSVKGRFTISRDDAKNTLYLKMDSLKPEDTAVYYCHRYPLIFRNSPYWGQGTQVTVSS
B9 displayed a Kd in [1] of 0.89 nM.

B10: Nano94-TxnA (VHH)
VHH: QVQLQESGGGLVQAGGSLRLSCAASGRMFSINSMGWYRQAPGKERELVATISEAGTTTYADSVRGRFTIARDNAKNTVYLQMNSLNPEDTAVYYCNAYIQLDSTIWFRAYWGQGTQVTVSS
notes: also called SP835
For the molecule B10, the EC50 in assay [7] worked out at 50.1 nM; in assay [8] it was 27.3 nM; in assay [9], 36.7 nM. In addition, in the assay with GI.1 VLPs, the “IC50 (read off the curve)” value was roughly 2 µg/mL.

B11: Nano94-MBP (VHH)
VHH: QVQLQESGGGLVQAGGSLRLSCAASGRMFSINSMGWYRQAPGKERELVATISEAGTTTYADSVRGRFTIARDNAKNTVYLQMNSLNPEDTAVYYCNAYIQLDSTIWFRAYWGQGTQVTVSS
notes: also called SP836
Regarding B11, the “IC50 (read off the curve)” value with GI.1 VLPs was roughly 2 µg/mL.

B12: anti-TcdB VHH 7F (VHH)
VHH: QVQLVESGGGLVEAGGSLRLSCVVTGSSFSTSTMAWYRQPPGKQREWVASFTSGGAIKYTDSVKGRFTMSRDNAKKMTYLQMENLKPEDTAVYYCALFINAVSGSSWGRGTQVTVSS
Molecule B12 showed a Kd in [1] of 8.8 nM.
